# Results: article PMC9915745 (ArXiv, 2023)
# B1: E. coli periplasmic chaperone HdeA, wild type (natural protein)
# chain: ADAQKAADNKKPVNSWTCEDFLAVDESFQPTAVGFAEALNNKDKPEDAVLDVQGIATVTPAIVQACTQDKQANFKDKVKGEWDKIKKDM
# modifications: native disulfide between Cys18 and Cys66
# Molecular target: the molecule itself
# Test: SEC-MALS
protein,measurement,value
B1,stoichiometry N,2
